US9127073B2, “Rock2 and Rock3, two new gain-of-function variants of the cytokinin receptors AHK2 and AHK3” (Freie Universitat Berlin, priority 2009, dated 2015)

Assays:
[1] = test system: Arabidopsis thaliana Columbia (Col-0); assay: Vegetative growth and fresh weight of mutant alleles in wild-type background; format: in vivo; conditions: for vegetative growth of wild-type plants: mutant allele in Col-0 background, compared to wild type
Experimental: (§1) The Columbia (Col-0) ecotype of Arabidopsis thaliana was used as the wild type. Plants were grown in the greenhouse on soil or under sterile conditions in Petri dishes containing ATS-medium (Estelle, M. A., and Somerville, C. (1986). Auxin-resistant mutants of Arabidopsis thaliana with an altered morphology. Mol. Gen. Genet. 206, 200-206). All plants were grown at 22° C. under long-day conditions (16 h light/8 h dark).
In order to analyze the consequences of the rock2 and rock3 mutations in wild type, the rock2 and rock3 suppressor mutants in 35S:CKX1 background were crossed to wild-type Columbia. […] The F2 generation was screened for rock2 and rock3 plants in wild-type background (called then rock2 and rock3 mutants).
(§2) At 18 days after germination digital pictures were taken of rosettes and the rosette diameter was measured using the Scion Image program (Scion Corporation, Frederick, Md., USA). Flowers at stage 14 were photographed and their size was also measured using the Scion Image program.
(§3) Fresh weights were measured by weighting either rosettes, shoots without rosettes, or whole aerial parts of the plants. The final plant height and the number of siliques were determined after termination of flowering. For analysis of seed yield, plants were put into paper bags after termination of flowering. After plants were kept dry for additional three weeks, total seed weight was determined.

[2] = test system: Arabidopsis thaliana Columbia (Col-0); assay: Natural leaf senescence of leaf 6 (Fv/Fm of PSII, chlorophyll content) under long-day conditions; format: in vivo
Experimental: as §1
The maximum efficiency of PSII photochemistry (Fv/Fm ratio) of dark adapted plants was measured with FluorCam (Photon Systems Instruments, Brno, Czech Republic). Chlorophyll contents of individual leaves were measured using the Chlorophyll Meter SPAD-502 (Konika Minolta, Bremen, Germany), taking the mean value of two measurements on the same leaf.

35S:CKX1 plants = assay: Reversion of the cytokinin-deficiency phenotype in the 35S:CKX1 background; format: in vivo, Arabidopsis thaliana
Experimental: Approximately 25000 35S:CKX1 seeds (Werner, T., Motyka, V., Laucou, V., Smets, R., Van Onckelen, H., and Schmülling, T. (2003). Cytokinin-deficient transgenic Arabidopsis plants show multiple developmental alterations indicating opposite functions of cytokinins in the regulation of shoot and root meristem activity. Plant Cell 15, 2532-2550) were soaked for 16 h in 100 ml 0.2% (v/v) ethyl methane sulfonate at room temperature. The M1 generation was grown as single plants and the M2 generation was screened for plants with wild-type-like phenotype.
Mapping populations for rock2 and rock3 were generated by crossing the rock2 35S:CKX1 and rock3 35S:CKX1 plants with wild type ecotype Landsberg erecta. The F2 progeny plants were used to map rock2 and rock3.
In order to compare the consequences of the rock3 mutation with those of the ore12 mutation the latter was introgressed into the 35S:CKX1 background (the rock3 was identified in this background). […] However, at different time points during development the degree of reversion is less strong than the reversion achieved with the rock3 allele. This difference is most evident for seedling size and rosette diameter. These two parameters are good indicators for a changed cytokinin status of the CKX1ox plants.

[3] = test system: Arabidopsis thaliana Columbia (Col-0); assay: Shoot parameters of mutant plants and transgenic lines (height, siliques, stem thickness, flower size); format: in vivo; conditions: compared to wild-type or ore12 plants; for size of flowers: flowers at stage 14
Experimental: as §1
For the construction of the pAHK2:rock2 transgene a 2124 by promoter region of AHK2 was amplified by PCR from genomic DNA of A. thaliana Col-0 and cloned with Gateway™ technology into the pDONR™ P4-P1R entry vector (Invitrogen, Karlsruhe, Germany). After cloning the AHK2 coding sequence with Gateway™ technology into the pDONR™ 221 entry vector (Invitrogen) the rock2 point mutation was introduced by PCR based mutagenesis with the “QuickChange Site-Directed Mutagenesis”-Kit (Stratagene, La Jolla, USA) to obtain the rock2 Allele. Both fragments were combined with Multisite Gateway™ recombinational cloning in the pK7m24GW,3 vector (Karimi et al., 2005). To obtain the pAHK3:rock3 construct a 2062 bp promoter region of AHK3 was amplified by PCR from genomic DNA of A. thaliana Col-0 and the fragment was inserted into pDONR™P4-P1R entry vector (Invitrogen). The AHK3 cDNA containing the open reading frame of the gene was PCR-amplified from A. thaliana Col-0 and cloned into pDONR™222 entry vector (Invitrogen). To introduce the rock3 point mutation the “QuickChange Site-Directed Mutagenesis”-Kit (Stratagene, La Jolla, USA) was used to get the rock3 allele. The AHK3 promoter and the ROCK3 cDNA were combined with Multisite Gateway™ recombinational cloning in the pK7m24GW,3 vector (Karimi, M., De Meyer, B., and Nilson, P. (2005). Modular cloning in plant cells. Trends Plant Sci. 10, 103-105). Both constructs were introduced into Agrobacterium tumefaciens strain GV3101 and A. thaliana Col-0 plants were transformed using the floral-dip method (Clough, S. J., and Bent, A. F. (1998). Floral dip: a simplified method for Agrobacterium-mediated transformation of Arabidopsis thaliana. Plant J. 16, 735-743). Transgenic lines were selected using kanamycin and propagated into the T3 or T4 generation.
as §2, §3

B1: rock2: constitutively active gain-of-function variant of cytokinin receptor AHK2 of Arabidopsis thaliana, SEQ ID No. 1, encoded by SEQ ID No. 3 (protein, listed as Arabidopsis thaliana)
chain: MSITCELLNLTSKKAKKSSSSDKKWLKKPLFFLILCGSLVIVLVMFLRLGRSQKEETDSCNGEEKVLYRHQNVTRSEIHDLVSLFSDSDQVTSFECHKESSPGMWTNYGITCSLSVRSDKQETRGLPWNLGLGHSISSTSCMCGNLEPILQQPENLEEENHEEGLEQGLSSYLRNAWWCLILGVLVCHKIYVSHSKARGERKEKVHLQEALAPKKQQQRAQTSSRGAGRWRKNILLLGILGGVSFSVWWFWDTNEEIIMKRRETLANMCDERARVLQDQFNVSLNHVHALSILVSTFHHGKIPSAIDQRTFEEYTERTNFERPLTSGVAYALKVPHSEREKFEKEHGWAIKKMETEDQTVVQDCVPENFDPAPIQDEYAPVIFAQETVSHIVSVDMMSGEEDRENILRARASGKGVLTSPFKLLKSNHLGVVLTFAVYDTSLPPDATEEQRVEATIGYLGASYDMPSLVEKLLHQLASKQTIAVDVYDTTNTSGLIKMYGSEIGDISEQHISSLDFGDPSRNHEMHCRFKHKLPIPWTAITPSILVLVITFFVGYILYEAINRIATVEEDCQKMRELKARAEAADIAKSQFLATVSHEIRTPMNGVLGMLKMLMDTDLDAKQMDYAQTAHGSGKDLTSLINEVLDQAKIESGRLELENVPFDMRFILDNVSSLLSGKANEKGIELAVYVSSQVPDVVVGDPSRFRQIITNLVGNSIKFTQERGHIFISVHLADEVKEPLTIEDAVLKQRLALGCSESGETVSGFPAVNAWGSWKNFKTCYSTESQNSDQIKLLVTVEDTGVGIPVDAQGRIFTPFMQADSSTSRTYGGTGIGLSISKRLVELMQGEMGFVSEPGIGSTFSFTGVFGKAETNTSITKLERFDLAIQEFTGLRALVIDNRNIRAEVTRYELRRLGISADIVSSLRMACTCCISKLENLAMILIDKDAWNKEEFSVLDELFTRSKVTFTRVPKIFLLATSATLTERSEMKSTGLIDEVVIKPLRMSVLICCLQETLVNGKKRQPNRQRRNLGHLLREKQILVVDDNLVNRRVAEGALKKYGAIVTCVESGKAALAMLKPPHNFDACFMDLQMPEMDGFEATRRVRELEREINKKIASGEVSAEMFCKFSSWHVPILAMTADVIQATHEECMKCGMDGYVSKPFEEEVLYTAVARFFEPC
With B1 the “increase in fresh weight of rosettes and whole plant over the complete life cycle” value ([1]; difference particularly evident at 32-40 DAG) was “effect is strongest”, the “vegetative growth of wild-type plants” value [1] was “significantly enhance the vegetative growth” and the “onset of leaf senescence” value ([2]; leaf 6, compared to wild type and among mutants) was “earliest onset of leaf senescence”. For the same molecule, the “reversion of the phenotypic consequences of CKX1 overexpression (cytokinin deficiency)” value (35S:CKX1 plants) was “suppress the phenotypic consequences of cytokinin deficiency”, the “number of siliques on the main stem” value [3] was “more siliques on the main stem” and the “shoot height (plant height)” value [3] was “increased”. The stem thickness [3] was “thicker stems” and the size of flowers [3] was “bigger flowers”.

B2: rock3: constitutively active gain-of-function variant of cytokinin receptor AHK3 of Arabidopsis thaliana, SEQ ID No. 2, encoded by SEQ ID No. 4 (protein, listed as Arabidopsis thaliana)
chain: MSLFHVLGFGVKIGHLFWMLCCWFVSWFVDNGIEDKSGLLVGSVGDLEKTKMTTLKKKNKMWFWNKISSSGLKIPSFSYQFLGSVKFNKAWWRKLVVVWVVFWVLVSIWTFWYFSSQAMEKRKETLASMCDERARMLQDQFNVSMNHVQAMSILISTFHHGKIPSAIDQRTFSEYTDRISFERPLTSGVAYAMRVLHSEREEFERQQGWTIRKMYSLEQNPVHKDDYDLEALEPSPVQEEYAPVIFAQDTVSHVVSLDMLSGKEDRENVLRARSSGKGVLTAPFPLIKTNRLGVILTFAVYKRDLPSNATPKERIEATNGYLGGVFDIESLVENLLQQLASKQTILVNVYDITNHSQPISMYGTNVSADGLERVSPLIFGDPLRKHEMRCRFKQKPPWPVLSMVTSFGILVIALLVAHIIHATVSRIHKVEEDCDKMKQLKKKAEAADVAKSQFLATVSHEIRTPMNGVLGMLHMLMDTELDVTQQDYVRTAQASGKALVSLINEVLDQAKIESGKLELEEVRFDLRGILDDVLSLFSSKSQQKGVELAVYISDRVPDMLIGDPGRFRQILTNLMGNSIKFTEKGHIFVTVHLVDELFESIDGETASSPESTLSGLPVADRQRSWENFKAFSSNGHRSFEPSPPDINLIVSVEDTGVGIPVEAQSRIFTPFMQVGPSISRTHGGTGIGLSISKCLVGLMKGEIGFSSTPKVGSTFTFTAVFSNGMQPAERKNDNNQPIFSEFRGMKAVVVDHRPARAKVSWYHFQRLGIRVEVVPRVEQALHYLKIGTTTVNMILIEQEIWNREADDFIKKLQKDPLFLSPKLILLANSVESSISEALCTGIDPPIVIVKPLRASMLAATLQRGLGIGIREPPQHKGPPALILRNLLLGRKILIVDDNNVNLRVAAGALKKYGADVVCAESGIKAISLLKPPHEFDACFMDIQMPEMDGFEATRRIRDMEEEMNKRIKNGEALIVENGNKTSWHLPVLAMTADVIQATHEECLKCGMDGYVSKPFEAEQLYREVSRFFNSPSDTES
For B2, the “vegetative growth of wild-type plants” value [1] was “significantly enhance the vegetative growth”, the “longer life time of leaves compared to wild-type leaves” value ([2]; leaf 6, long-day conditions) was “about ten” and the “reversion of the phenotypic consequences of CKX1 overexpression (cytokinin deficiency)” value (35S:CKX1 plants) was “suppress the phenotypic consequences of cytokinin deficiency”. For the same molecule, the stem thickness [3] was “thicker stems” and the size of flowers [3] was “bigger flowers”.
